{"source": "patent US20110189164A1", "about": "“Peptide Stabilizer Compounds and Screening Method” (Isogenica Ltd, priority 2005, published 2011)", "key": {"Human Thrombin": {"biological_target": "Human Thrombin (Homo sapiens, UniProt P00734)", "conditions": "fifth round selected peptides; 1 hour incubation +/- Human Thrombin 0.1 unit/ml; anti-FLAG ELISA OD450", "procedure": "The values represent ((OD450 nm reading after incubation with thrombin)/(OD450 nm reading after incubation without thrombin)) expressed as a percentage. 100% indicates complete protection from thrombin cleavage.\nRecovered DNA from the fifth round of selection was amplified using PCR, purified and digested with NotI and NcoI. The DNA was then ligated into a similarly digested M13 gpIII phagemid vector and transformed into E. coli XL-1 blue cells, and plated on 2% glucose, 2×TY, 100 μg/ml ampicillin plates. Individual colonies were grown for the production of phage particles as previously described (Odegrip et al Proc. Natl. Acad. Sci USA 101 2806-2810 (2004)). NUNC Maxisorp plates were coated with 100 ng/well of anti-FLAG M2 antibody in PBS overnight at 4° C. ELISA assays were performed with bound phage being incubated for 1 hour in 2% BSA in PBS, +/−Human Thrombin (0.1 unit/ml). The assay was developed with SureBlue TMB peroxidase substrate (Insight Biotechnology, Middlesex, UK) and read at 450 nm."}, "trypsin": {"biological_target": "T1, trypsin (Bos taurus, UniProt P00760)", "T1 construct": "purchased SIGMA-Aldrich or Novagen", "T1 sequence (P00760 24-246)": "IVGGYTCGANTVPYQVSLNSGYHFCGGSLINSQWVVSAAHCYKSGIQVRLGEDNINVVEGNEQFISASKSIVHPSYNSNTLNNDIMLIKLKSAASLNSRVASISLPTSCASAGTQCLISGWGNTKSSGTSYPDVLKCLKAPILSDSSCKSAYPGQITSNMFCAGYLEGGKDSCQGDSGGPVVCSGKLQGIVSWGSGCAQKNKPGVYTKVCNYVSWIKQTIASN", "test": "Incubation with trypsin-agarose, then ELISA against anti-FLAG antibody (trypsin resistance)", "type": "in vitro ADME", "conditions": "two hours at 25° C.", "procedure": "A. Unselected library peptides incubated with trypsin. B. Unselected library peptides incubated without trypsin. C. Round five thrombin selection peptides incubated with trypsin. D. Round five thrombin selection peptides incubated without trypsin.\nTrypsin cleaves after R or after K, thus there are two trypsin sites fixed in the FLAG epitope and thrombin substrate sequence. Even partial resistance to trypsin is surprising as no selection for trypsin resistance was performed and the FLAG epitope is susceptible to trypsin cleavage. Such resistance is observed in round five peptides selected for thrombin resistance, but not in the un-selected library peptides (FIG. 3)."}}, "data": [{"sequence": "HCVHEPQTKHES [SEQID 029]", "values": [{"measurement": "Thrombin resistant", "setting": "Human Thrombin", "value": "resistant"}, {"measurement": "Trypsin resistant", "setting": "trypsin", "value": "resistant"}]}, {"sequence": "HGHSPSDNANTR [SEQID 028]", "values": [{"measurement": "Thrombin resistant", "setting": "Human Thrombin", "value": "resistant"}, {"measurement": "Trypsin resistant", "setting": "trypsin", "value": "resistant"}]}, {"sequence": "ITPPDNSHTPDE [SEQID 027]", "values": [{"measurement": "Thrombin resistant", "setting": "Human Thrombin", "value": "resistant"}, {"measurement": "Trypsin resistant", "setting": "trypsin", "value": "resistant"}]}, {"sequence": "PSCPNKQDPTHD [SEQID 030]", "values": [{"measurement": "Thrombin resistant", "setting": "Human Thrombin", "value": "resistant"}, {"measurement": "Trypsin resistant", "setting": "trypsin", "value": "resistant"}]}]}
